B1: H. somnus transferrin-binding protein 1 (native, from strain HS25) (receptor)
chain: DTESPSSNTEAVLELEAIQVQAKHEISRHDNEVTGLGKVVKSSEDIDKELILNIRDLTRYDPGISVVEQGRGATSGYAMRGVDRNRVAMLVDGLGQAQSYSTLKSDANGGAINEIEYENIKSIELSKGSSSAEYGSGALGGAVGFRTKEADDVIKEGQNWGLNSKTAYSSKNSQFTQSVAGAFRVGGFDSLAIFTHRKGKETRVHPAAEEIQHTYQPLEGYFNRYEVDQNRNGKPVLANAYYILADECSNLSDPSCRHAKAKTNRVGAPENNPNWTPEEQAQAAKMPYPTRTASAKDYTGPDRISPNPMDYQSHSFFWKGGYRLSPNHYVGGVLEHTKQRYDIRDMTQRAYYTKEDICHSGSSCQTLDKNETDKGNFGITLTDNPLDGLVYDAGNQARGVRYGRGKFFNERHTKNRSGIFYRYENPDKNSWPDSLTLSIDRQDLKLSSRIHWTYCTDYPHVARCRASLDKPWSNYRTEKNDYQERLNLGQFNWEKTFNLGFTTHKVNIAAGFGTHRSTLQHGDLYAEYVTLPPYTEEKVYGEDNKVKQNPTAEEKEKLQYGNGSYDKPRVYRRKNTPELKTVNGCNETAGDNRDCSPRVITGRQYYLALRNHIAFGEWADLGLGVRYDNHTFRSNDPWTKGGNYHNWSWNAGVSLKPTRHFVVSYRVSSGFRVPAFYELYGVRTGASGKDNPLTQKEFLSRKPLKSEKAFNQEIGLAVQGDFGVIETSFFQNNYKNLLARADKYVEGLGYVTDFYNTQDVKLNGINILGRIYWEGISDRLPEGLYSTLAYNRINIKARKLHDNFTNVSEPTLEAVQPGRIIASIGYDDPEGRWGLNLSGTYSQAKQRDEVVGEKVFGKGGSIKRTINSKRTRAWYIYDLTAYYTWKEKFTLRAGIYNLTNRKYSTWESVRQSAANAVNQDLGTRSARFAARGRNFTVSMEMKF
notes: also called Tbp1; native H. somnus Tbp1
B2: H. somnus transferrin-binding protein 2 (native, from strain HS25) (receptor)
chain: CSSGKGGFDLDDVEHTPPSSSGSSRPTYQDVPTGQRQQEIVEEINSPALGYATEIPRRNISPMPTTGTKESNARVAITAQQVAPLSMPFNSIKEDFIKRLIAENTKKNARGRDVKYFDDTDDVLFAHDGSNLAHKRDLQYVRVGYVLGTRKIELVFSHDKKTRDQFPAGWVGYVFYQGTSPAVTLPTQTVTYKGYWDFVSDAFNERTLAEDFTQENSSATSNIPGNQIGATSMDALVNRKVSGEKINIAHSAEFTADFGSKKLSGELKSNGYVSRIENEQQDVKTRYKIDADIKGNRFVGSATAQEKSHTIFGKDADKRLEGGFFGPKAEELAGKFLTDDNSLFVVFGAKRESKGDEKLETRFDAVKISTDSNKLEKETMDTFGNAAYLVLDGRQFPLVPESNAGTTGAGNTGKNEFISTIDGSHLNKTNHENHKKYKVTVCCSNLVYVKFGSYGEQTTANDASNSTAGAATTHNSTLTNGHLFLTGERTSLTDMAKQSGAAKYIGTWQANFLSSKGQVGSVDAGDPRNDSGKSRAEFDVNFGGKTVTGKFFDADGIQPALTMDSTKIEGNGFSGTAKTTGSLQLDKGSTGAGITVTFTDAKVDGAFYGPNAEEIGGTITSNGTGDKVGGVFGAKRQELSQQK
modifications: lipid modification (lipoprotein; residue not stated)
notes: The signal peptide (residues 1-19) is stated; also called Tbp2; protein with relative molecular weight of 80,000

Biological target: biotinylated bovine transferrin (bovine, UniProt Q29443 20-704, biotinylated (sites not given))
Sequence (Q29443 20-704 limits assumed): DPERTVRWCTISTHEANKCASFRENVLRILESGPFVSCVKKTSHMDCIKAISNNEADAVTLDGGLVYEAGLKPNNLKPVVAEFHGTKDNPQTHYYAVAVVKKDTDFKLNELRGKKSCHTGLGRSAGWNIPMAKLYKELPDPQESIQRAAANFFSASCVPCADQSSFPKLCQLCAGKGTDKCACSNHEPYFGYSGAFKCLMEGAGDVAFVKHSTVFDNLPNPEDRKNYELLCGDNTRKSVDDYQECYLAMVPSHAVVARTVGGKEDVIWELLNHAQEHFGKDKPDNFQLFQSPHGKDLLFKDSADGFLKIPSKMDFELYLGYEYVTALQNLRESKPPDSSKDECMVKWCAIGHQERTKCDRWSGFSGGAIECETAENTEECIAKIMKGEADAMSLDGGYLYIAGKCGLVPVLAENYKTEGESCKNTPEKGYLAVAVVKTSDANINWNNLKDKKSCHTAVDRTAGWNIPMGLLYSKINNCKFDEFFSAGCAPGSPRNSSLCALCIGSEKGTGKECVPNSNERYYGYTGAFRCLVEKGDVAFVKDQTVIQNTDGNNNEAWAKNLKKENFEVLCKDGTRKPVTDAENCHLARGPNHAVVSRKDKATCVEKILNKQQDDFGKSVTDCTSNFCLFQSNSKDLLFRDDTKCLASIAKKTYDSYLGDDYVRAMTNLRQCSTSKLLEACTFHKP
Assay: affinity chromatography: H. somnus total membranes mixed with biotinylated bovine transferrin, captured on streptavidin-agarose

Row | Binder | binding result
1 | B1 | binds
2 | B2 | binds
